We go through 1 molecule from patent US20210032294A1, “MODIFIED PlySs2 LYSINS AND USES THEREOF” (CONTRAFECT CORPORATION, priority 2018, published 2021).

The test system of series [1] is 5 MRSA strains and 5 MSSA strains. The series can be described thus: Checkerboard synergy assay with daptomycin or vancomycin. Format: cell-based, Staphylococcus aureus. The following applies: for FIC index: with vancomycin. The procedure:
Synergy studies with antibiotics suitable for treatment of Gram-positive bacteria, for example, daptomycin (DAP) and vancomycin (VAN), were performed using a checkerboard assay. Fractional inhibitory concentration (FIC) index values were determined for modified lysin polypeptide pp296 and antibiotic combinations against 5 methicillin-sensitive Staphylococcus aureus (MSSA) and 5 methicillin resistant Staphylococcus aureus (MRSA) isolates. An FIC index value of ≤0.5 may be interpreted as strong synergy between the two agents, while a value between 0.5 and 1 may still be considered a synergistic effect. Given that pp296 has four amino acid replacements in the catalytic domain, the ability of pp296 to synergize with antibiotics was unexpected. […] Qualitatively similar results may be anticipated upon performing similar assays using other de-immunized active variants, such as pp55, pp61, pp65, pp400, and pp619, in accordance with the present disclosure.
In another experiment, the ability of modified lysin polypeptide pp296 to synergize with daptomycin and vancomycin was assessed using a checkerboard analysis. FIC (fractional inhibitory concentration) index values were determined for pp296 and antibiotic combinations against 5 MSSA and 5 MRSA isolates. A total of 50 μl of Mueller-Hinton broth (BBL) was distributed into each well of microdilution plates. The first antibiotic of the combination was serially diluted along the ordinate, while the second drug was diluted along the abscissa. An inoculum equal to a 0.5 McFarland turbidity standard was prepared from each S. aureus isolate in MHB. Each microtiter well was inoculated with 100 μl of a bacterial inoculum of 5×10^5 CFU/ml, and the plates were incubated at 37° C. for 18 h under aerobic conditions. The resulting checkerboard contained each combination of two antibiotics, with wells that contained the highest concentration of each antibiotic at opposite corners. […] To quantify the interactions between the antibiotics being tested, the FIC index (the combination of antibiotics that produced the greatest change from the individual antibiotic's MIC) value was calculated for each strain and antibiotic combination as follows:
(A/MICA)+(B/MICB)=FICA+FICB=FIC index,
Checkerboards were generated using combinations of pp296 with either daptomycin or vancomycin against 5 MRSA strains (MW2, JMI-5675, JMI-4408, JMI-6181, and JMI-6182) and 5 MSSA strains (ATCC 29213, JMI-40979, JMI-43257, JMI-41293, and JMI-49315). Synergy was defined as inhibitory activity greater than what would be predicted by adding the two components together.

Another series concerns bacterial inoculum. The series can be described thus: Thermal stability: in vitro lytic assay after 30 min heating. Format: cell-based. The method, then: Thermal stability was assessed by incubating the lysin polypeptides at a fixed concentration of 128 μg/mL in Tris buffer pH 8.0 for 30 minutes at various elevated temperatures (within the range of about 30° C. to 60° C.) prior to assessing activity. The samples were then cooled for 2 minutes on ice and activity was then assessed by an in vitro lytic assay by exposing a bacterial inoculum (OD600 ˜0.5-1.2) in Tris buffer to a 2-fold dilution series of each sample (diluted from 128-0.25 μg/mL across the x-axis of a 96 well microtiter plate). The loss of optical density was followed for 15 minute at room temperature, and the specific activity was determined based on the enzyme concentration enabling a 50% loss of optical density at 15 minutes. The enzyme activities of each variant were compared to the wild-type, CF-301 enzyme (GMT-grade PlySs2 protein) to calculate the % of Wild-Type Activity over a range of temperatures.
The thermal stability of wild-type, CF-301 was arbitrarily set at 100. The results for exemplary modified lysin polypeptides are set forth below in Table 5 at a single temperature of 37° C.:
In another experiment, the thermal stability of modified lysin polypeptides was assessed at different temperatures and compared with that of wild-type, CF-301 (set at 100).

For series [2], the system named is S. aureus isolate CFS-860. The series can be described thus: Mouse neutropenic thigh infection (MNTI) model. Format: in vivo, Staphylococcus aureus. The procedure:
The efficacy of four modified lysin polypeptides was compared to wild-type PlySs2 in a dose response (0-60 mg/kg) assay using a mouse neutropenic thigh infection (MNTI) model.
Bacterial inoculum was generated by allowing bacterial cells to grow to exponential phase in MHB until they reached an optical density (OD) of about 0.5 at 600 nm. The bacterial cells were thoroughly washed, resuspended in 0.9% sodium chloride USP, and diluted to an equivalent of 3.9×10^8 colony forming units (CFU)/mL. Cells were further diluted as described below in 0.9% sodium chloride USP and maintained on wet ice.
Neutropenia was induced in female BALB/cByJ mice (5-7 weeks, Jackson Laboratories) by intraperitoneal (ip) administration of 150 mg/kg and 100 mg/kg of cyclophosphamide 4 and 1 days prior to inoculation of bacteria, respectively. Bacterial inoculum (S. aureus isolate CFS-860, 100 μl of 10^7 CFU/ml solution) was injected intramuscularly (IM) into both posterior thighs of each mouse. […] At 2 hours post-inoculation (Early Control) and 24 hours post-treatment initiation, animals were euthanized (CO2 asphyxiation), and the thighs were aseptically removed. Each thigh was weighed, placed into 4 ml sterile saline and homogenized in 7 ml lysing tubes using a Precellys24 high-throughput tissue homogenizer (Bertin Corp, Rockville, Md.). Dilutions of homogenate were plated on tryptic soy blood agar plates (Becton Dickinson) and incubated at 37° C. overnight in a CO2 incubator. Bacterial burden was enumerated and expressed as log 10 CFU/g of thigh weight and compared to control animals harvested at 2 hours post infection (Early Control) and animals treated with vehicle (Late Control).
The data representing mouse thigh bacterial burden are depicted in FIG. 2. The upper dot on the y-axis is vehicle alone, and the lower dot on the y-axis is the Early Control. pp1149 is in fact also a wild-type lysin over-expressed and purified in the laboratory along with the other modified lysin polypeptides and used as an additional positive control.

B1: pp296: Modified PlySs2 lysin, SEQ ID NO: 6: L92W, V104S, V128T, Y137S, Y164K, N184D, S198Q (protein)
chain: MTTVNEALNNVRAQVGSGVSVGNGECYALASWYERMISPDATVGLGAGVGWVSGAIGDTISAKNIGSSYNWQANGWTVSTSGPFKAGQIVTWGATPGNPYGHVSIVEAVDGDRLTILEQNYGGKRYPTRNYYSAASSRQQVVHYITPPGTVAQSAPNLAGSRSKRETGTMTVTVDALNVRRAPDTSGEIVAVYKRGEQFDYDTAIIDVNGYAWVSYIGGSGKRNYVATGATKDGKRFGNAWGTFK
Turning to B1, the FIC index values in series [1] (with both daptomycin and vancomycin, predominantly) is reported as about 0.5. In addition, the FIC index was 0.375 in series [1] (MRSA JMI-6182), 0.625 in series [1] (MSSA ATCC 29213), 0.375 in series [1] (MSSA strain JMI-40979) and 0.5 in series [1] (against 6 of the 10 strains examined). Further, the “% Wild-Type Activity at 37° C.” value in the series on bacterial inoculum (30 minutes at 37° C., 128 μg/mL in Tris buffer pH 8.0, CF-301 set at 100) is listed as 205%. The “% of CF-301 wild-type, 37° C.” value with bacterial inoculum (30 minutes at 37° C., another experiment) worked out at 204.6%. The “% of CF-301 wild-type, 40° C.” value in the series with bacterial inoculum (30 minutes at 40° C.) stood at 243.1%. Moreover, in the series on bacterial inoculum (30 minutes at 42° C.), the “% of CF-301 wild-type, 42° C.” value is recorded as 141.2%. For the same molecule, the “% of CF-301 wild-type, 45° C.” value with bacterial inoculum (30 minutes at 45° C.) was determined as 40.1%. In the series on bacterial inoculum (30 minutes at 48° C.), the “% of CF-301 wild-type, 48° C.” value is recorded as 0.0%. For the same molecule, the “% of CF-301 wild-type, 50° C.” value in the series with bacterial inoculum (30 minutes at 50° C.) was determined as 0.0%. Also, the “Performance in MNTI at lower doses” value in series [2] (0.5 mg/kg) is on record as “performed comparably to wild type”. Besides, in series [2] (neutropenic BALB/cByJ mice, intravenous, dose response, 24 hours), the “Bactericidal efficacy (thigh bacterial burden) versus wild type” value was “activity comparable to wild-type PlySs2 lysin”. Moreover, the “Bactericidal efficacy at the lowest dose used” value in series [2] (neutropenic mice, intravenous, 5 mg/kg) is “comparable to that of wild-type PlySs2 lysin”.
